The results in this text go back to article PMC7078309, “New Therapeutic Candidates for the Treatment of Malassezia pachydermatis -Associated Infections” (Scientific Reports, 2020).

Broadly, the Km is the concentration of substrate that gives half-maximal velocity.

Substrate in the series: O=C(O)CCC(=O)C(=O)O
Briefly: NAD/NADH quantification kit, Lineweaver-Burk. It is filed as biochemical, Malassezia pachydermatis. Conditions: without inhibitor; reverse reaction; 2-OG 15-30 mM; NADH. From the text: NAD/NADH quantification kit, Lineweaver-Burk on MpSDH

B1: MpSDH (Malassezia pachydermatis) (protein)
chain: MTGTQALWLRCETKPAEHRSALTPTTAKKLINAGFDITVERDPNRIFDDEEFEKVGCHMAEYHSWPKAPKTTPIIGLKELDTPGPDLEHTHIQFAHCYKHQEGWVDVLARFKRGGGKLYDLEFLEDANGRRVAAFGWHAGFAGAALGLLALAEQVEGKVLGAQTKYPNEEALMEKTREAVRVIRKHRPDGRVTSLIIGALGRCGRGAIDCLEKSGLQSDEIVRWDIQETSAKSGPYQEIIDSDLFVNCIYLSKKIPPFVNKESLQAVGDKRRLGMIVDVSCDTTNPNNPIPVYSINTTFDKPTVAVDGFDKLEVISIDHLPTLLPREASEAFSNDLLPSLLQLPLVTGVAGEEALQHVNEEGKGAVWTRAEALFRKHLAEAEANGA
notes: synthetic gene, C-terminal 6xHN tag (pET6xHN-C), expressed in E. coli BL21, Ni-IMAC, 43 kDa band on SDS-PAGE
Consider B1, for which the Km is on record as 0.25 ± 7.1e-02 mM.
